Results from IntAct's records for PubMed 31515488.

B1: Microtubule-associated tumor suppressor candidate 2 (Homo sapiens), Q5JR59-3 (parent)
chain: MGHCCCKPYNCLQCLDKTNESALVKEKELSIELANIRDEVAFHTAKCEKLQKEKEELERRFEDEVKRLGWQQQAELQELEERLQLQFEAEMARLQEEHGDQLLSIRCQHQEQVEDLTASHDAALLEMENNHTVAITILQDDHDHKVQELMSTHELEKKELEENFEKLRLSLQDQVDTLTFQSQSLRDRARRFEEALRKNTEEQLEIALAPYQHLEEDMKSLKQVLEMKNQQIHEQEKKILELEKLAEKNIILEEKIQVLQQQNEDLKARIDQNTVVTRQLSEENANLQEYVEKETQEKKRLSRTNEELLWKLQTGDPTSPIKLSPTSPVYRGSSSGPSSPARVSTTPR
partner: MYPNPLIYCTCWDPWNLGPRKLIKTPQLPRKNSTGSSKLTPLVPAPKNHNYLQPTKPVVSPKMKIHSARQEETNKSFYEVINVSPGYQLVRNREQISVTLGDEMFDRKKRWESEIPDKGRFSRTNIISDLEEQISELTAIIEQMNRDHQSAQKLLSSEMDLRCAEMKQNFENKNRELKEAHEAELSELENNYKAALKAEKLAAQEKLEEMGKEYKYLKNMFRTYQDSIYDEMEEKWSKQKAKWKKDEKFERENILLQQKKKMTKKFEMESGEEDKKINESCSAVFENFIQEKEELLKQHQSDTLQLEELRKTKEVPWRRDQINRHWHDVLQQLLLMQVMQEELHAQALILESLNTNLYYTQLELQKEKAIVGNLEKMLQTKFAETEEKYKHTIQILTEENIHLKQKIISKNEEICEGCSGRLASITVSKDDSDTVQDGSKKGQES
B2: Tuftelin-interacting protein 11 (Homo sapiens), Q9UBB9 (parent)
chain: MSLSHLYRDGEGRIDDDDDERENFEITDWDLQNEFNPNRQRHWQTKEEATYGVWAERDSDDERPSFGGKRARDYSAPVNFISAGLKKGAAEEAELEDSDDEEKPVKQDDFPKDFGPRKLKTGGNFKPSQKGFAGGTKSFMDFGSWERHTKGIGQKLLQKMGYVPGRGLGKNAQGIINPIEAKQRKGKGAVGAYGSERTTQSMQDFPVVDSEEEAEEEFQKELSQWRKDPSGSKKKPKYSYKTVEELKAKGRISKKLTAPQKELSQVKVIDMTGREQKVYYSYSQISHKHNVPDDGLPLQSQQLPQSGKEAKAPGFALPELEHNLQLLIDLTEQEIIQNDRQLQYERDMVVNLFHELEKMTEVLDHEERVISNLSKVLEMVEECERRMQPDCSNPLTLDECARIFETLQDKYYEEYRMSDRVDLAVAIVYPLMKEYFKEWDPLKDCTYGTEIISKWKSLLENDQLLSHGGQDLSADAFHRLIWEVWMPFVRNIVTQWQPRNCDPMVDFLDSWVHIIPVWILDNILDQLIFPKLQKEVENWNPLTDTVPIHSWIHPWLPLMQARLEPLYSPIRSKLSSALQKWHPSDSSAKLILQPWKDVFTPGSWEAFMVKNIVPKLGMCLGELVINPHQQHMDAFYWVIDWEGMISVSSLVGLLEKHFFPKWLQVLCSWLSNSPNYEEITKWYLGWKSMFSDQVLAHPSVKDKFNEALDIMNRAVSSNVGAYMQPGARENIAYLTHTERRKDFQYEAMQERREAENMAQRGIGVAASSVPMNFKDLIETKAEEHNIVFMPVIGKRHEGKQLYTFGRIVIYIDRGVVFVQGEKTWVPTSLQSLIDMAK
partner: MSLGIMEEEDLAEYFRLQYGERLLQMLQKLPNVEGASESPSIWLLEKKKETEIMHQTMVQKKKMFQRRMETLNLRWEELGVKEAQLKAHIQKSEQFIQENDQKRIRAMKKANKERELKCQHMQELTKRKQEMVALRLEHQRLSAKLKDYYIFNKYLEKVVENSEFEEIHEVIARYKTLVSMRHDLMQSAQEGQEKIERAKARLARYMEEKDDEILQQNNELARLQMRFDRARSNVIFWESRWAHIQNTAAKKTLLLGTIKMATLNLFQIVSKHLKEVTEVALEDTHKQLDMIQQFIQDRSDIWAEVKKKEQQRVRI
B3: Calcium-binding and coiled-coil domain-containing protein 2 (Homo sapiens), Q13137 (parent)
chain: MEETIKDPPTSAVLLDHCHFSQVIFNSVEKFYIPGGDVTCHYTFTQHFIPRRKDWIGIFRVGWKTTREYYTFMWVTLPIDLNNKSAKQQEVQFKAYYLPKDDEYYQFCYVDEDGVVRGASIPFQFRPENEEDILVVTTQGEVEEIEQHNKELCKENQELKDSCISLQKQNSDMQAELQKKQEELETLQSINKKLELKVKEQKDYWETELLQLKEQNQKMSSENEKMGIRVDQLQAQLSTQEKEMEKLVQGDQDKTEQLEQLKKENDHLFLSLTEQRKDQKKLEQTVEQMKQNETTAMKKQQELMDENFDLSKRLSENEIICNALQRQKERLEGENDLLKRENSRLLSYMGLDFNSLPYQVPTSDEGGARQNPGLAYGNPYSGIQESSSPSPLSIKKCPICKADDICDHTLEQQQMQPLCFNCPICDKIFPATEKQIFEDHVFCHSL
partner: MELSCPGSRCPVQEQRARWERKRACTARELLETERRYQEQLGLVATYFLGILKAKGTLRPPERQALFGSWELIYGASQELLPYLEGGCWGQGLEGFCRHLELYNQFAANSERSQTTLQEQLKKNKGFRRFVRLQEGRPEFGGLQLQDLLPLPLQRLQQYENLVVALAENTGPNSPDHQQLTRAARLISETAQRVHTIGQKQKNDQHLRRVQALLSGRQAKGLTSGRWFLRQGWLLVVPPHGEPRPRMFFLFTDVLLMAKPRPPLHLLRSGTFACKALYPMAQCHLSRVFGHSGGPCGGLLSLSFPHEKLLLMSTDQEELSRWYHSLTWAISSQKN
B4: Cyclin-dependent kinase 4 inhibitor D (Homo sapiens), P55273 (parent)
chain: MLLEEVRAGDRLSGAAARGDVQEVRRLLHRELVHPDALNRFGKTALQVMMFGSTAIALELLKQGASPNVQDTSGTSPVHDAARTGFLDTLKVLVEHGADVNVPDGTGALPIHLAVQEGHTAVVSFLAAESDLHRRDARGLTPLELALQRGAQDLVDILQGHMVAPL

Variants of: B1
Settings: with facc1_human FLACC1, Q96Q35

| effect of a mutation on the interaction | Variant |
| --- | --- |
| with no effect | A89V |

Variants of: B2
Settings: with ccd42_human CCDC42, Q96M95

| effect of a mutation on the interaction | Variant |
| --- | --- |
| with no effect | S688L |
| with no effect | R8Q |

Variants of: B3
Settings: with arg39_human ARHGEF39, Q8N4T4

| effect of a mutation on the interaction | Variant |
| --- | --- |
| with no effect | V248A |

Variants of: B4
Settings: with nr4a1_human NR4A1, P22736

| effect of a mutation on the interaction | Variant |
| --- | --- |
| disrupting interaction strength | P142S |
| with no effect | A121S |

Variants of: B4
Settings: with nr4a2_human NR4A2, P43354

| effect of a mutation on the interaction | Variant |
| --- | --- |
| with no effect | P142S |
| with no effect | A121S |

Variants of: B4
Settings: with cdk6_human CDK6, Q00534

| effect of a mutation on the interaction | Variant |
| --- | --- |
| with no effect | P142S |
| with no effect | A121S |

Variants of: B4
Settings: with cdk4_human CDK4, P11802

| effect of a mutation on the interaction | Variant |
| --- | --- |
| with no effect | A121S |
